Experimental data: the DeepSol protein solubility set

Assay: soluble on expression in E. coli; label from the status in PepcDB or PDB records

Row | Sequence | soluble on expression in E. coli
1 | MSCKPNILVLFYGYGSIVELAKEIGKGAEEAGAEVKIRRVRETLPPEFQSRIPFDKVKDIPEVTLDDMRWADGFAIGSPTRYGNMAGGLKTFLDTTAILWKDNVLYGKPVTFFTEASTVHGGHETTILTMSTYAYHFGMIIVPIGYGIPELFQTTTGGGPYGATHLGSKEELDEMERKIARFQGKRITEVAKAIKCCNK | soluble
2 | MKILILGNGQVGSTVAQNLAAIPNNDVTVIDIDEKALQETGSRLDVQTVFGNGASPFTLERAGAEDADLLLALSRSDETNIVACKVAADLFNIPGRIARVRSSEYLEYLSPKLENNENGSLSIFGITETISPEQLVTEQLAGLIDCPGALQVLRFADDRVRMVIIQARRGGLLVGRSIADIAQDLPDGADCQICAVYRNNRLIVPAPQTVIIEGDEILFAAAAENIGAVIPELRPKETSTRR | not soluble
3 | MTFMKLYFFGDDNNKPKLSEHLIIYILSLLDPKSQSVASLVNKDWSRLVQLTRQYLSMLPVIHRIPLFANLGLDVLKLKLMTGGMTNSTVRLRIKNAPEKWVMRIPGIGSSAFITRRDEAHNAKQAEKLGLNVPIAFFDPEDGLQVTRFIEGVHSLDDKALARKEILHEVASMMRRLHKSPPFDNNTLFFERNEELLDLLKRKPFNFPGEIEFVEQQMKNLKEIFSSYHIQQFPCHNDTTPLNFILSENPEIKGSEKIHQIDWEYSSNNDFIWDLVYFMVEAKLNREQQLILLKAYFNTEELSDSLLAWIEVYKPIIEWWITIWSWTQLANGANAVDLSSYEQLGLERYHNTLSHLKSEDYVKALALIEADSHSLTFTGQRPF | not soluble
4 | MLAERLVNDYDVEVLTTCVKNYVTGDNEYPEGEEILNGVLVRRFYSDPVEPDLHKSYVRQAAPAKKWRHFLYRCRLLKPLSYVKPIWHYKEQEEIKALNSQVFYSSSMYAFIRENKASYRAFIPLSFFPHTYYTALYAPEKTILIPTMHNNGSSFRSIITSVFSEVAYIGFNIEAEQKLVENIVGKPLAAHGIISVGIEKTKAADWEQTKVKYNLPEDYLLYVGRIDAIKLNNIVDYFLSYKKKYVGSRLKLVLVGGIFGKTVEHPDIIYTGFVDDAEKVAIQLNAKVIVNPSRYESLSLILLETMSEGKAMLVNGRCNVLREHCEKSNYAALYYMNRRDFMRKLHNLENSETLRQQMGEKGRHYVQENYNWEMIIGRMKNVIQMLS | not soluble
5 | SESLRIIFAGTPDFAARHLDALLSSGHNVVGVFTQPDRPAGRGKKLMPSPVKVLAEEKGLPVFQPVSLRPQENQQLVAELQADVMVVVAYGLILPKAVLEMPRLGCINVHGSLLPRWRGAAPIQRSLWAGDAETGVTIMQMDVGLDTGDMLYKLSCPITAEDTSGTLYDKLAELGPQGLITTLKQLADGTAKPEVQDETLVTYAEKLSKEEARIDWSLSAAQLERCIRAFNPWPMSWLEIEGQPVKVWKASVIDTATNAAPGTILEANKQGIQVATGDGILNLLSLQPAGKKAMSAQDLLNSRREWFVPGNRLV | soluble
6 | MDPALAAQMSEAVAEKMLQYRRDTAGWKICREGNGVSVSWRPSVEFPGNLYRGEGIVYGTLEEVWDCVKPAVGGLRVKWDENVTGFEIIQSITDTLCVSRTSTPSAAMKLISPRDFVDLVLVKRYEDGTISSNATHVEHPLCPPKPGFVRGFNHPCGCFCEPLPGEPTKTNLVTFFHTDLSGYLPQNVVDSFFPRSMTRFYANLQKAVKQFHE | soluble
7 | MSLDKDTVYAVVDIETTGTSVTDGDRIIQIGCVFVQHNQVINHFETDVNPLKEIPAAISRLTGITNKRVRHAPLFDDVAGTLYSLLTNTVFVAHNVNFDLPFINAELERVGYPALPIAAVDTVSLSQILLPTATSFRLRDLSRLFNIEHDNPHSADSDASATAELFIFLFRRLRALPMVTLQRMIDLQADLPLQTTTLFRVAQQLNEEGHHHHHH | not soluble
8 | MGRQIPPDPVFGDVLVAKLINRVMWDGKKTIAQKIVYGAFDIIREKTKKDPLEVFRQAVENVKPVLEVRPRRVGGATYQVPIEVQEPRRTSLALRWIVEAARAKKGRPMKEKLAEEIIAAYNNTGTAIKKKEDTHRMAEANRAFAHYRW | soluble
9 | MAHHHHHHMIVELNPANFHKVVKDPSKNVFVMFYAPWCGHCNNMKPMWLELADKYPTAEDVIIARIDASEYRGIAKEFDIRGFPTLKFFSKRDKSGEIEYDGPRELSAFVAYVATNKQ | not soluble
10 | MAHHHHHHMWQTVVRRYRLQPTSLAAFLESNCMVAKPPTAALHSDSNLVVAETNSLSIFENLAAEESLIRGLSLDTKQRLLLFYVNRPCVVVGRNQNIFQEVSLRRAAADGVCVARRASGGGAVFHDEGNLCFSFITHRTRYAPEKTIQLVRLGLCASYAIDPARLTTTGRHDLFLDGRKITGSAMRVQRDIAYHHCTLLVDTPHASVGRYLRPEGDYVAFKTSSVGSVRSPVTSLAESGCIADGPGAVAALKGNMADFFLAEGDRVLNAATPWELDAVELRQRFTTARHRCANAPLFALDVVGAVAADMPFIEREGRQPARGDAATLGEAVHKAASKEWAYAMPTFTSTVFLSDSELRRRLKTLSVRQHVALLCSLAEEELLAVLQRCVLEGSEGPEAVAGTEAGLHLVTTVEHRLVTSVVVRRVAPTTATASAVAPSSASSGGWVQRYLSALLVGHPCDAAIEGLECVGDTTAVVQGLVHEAGSLCPDLPDAVGDAALLMVARVLLDVWRDKNVFDIAT | not soluble
11 | MRMIPIKIWAADVDVSIGYRAPRAASNTLGIFSYSAEYTLCTLPISNMTSQSVMFKGGLPADCTCPICEQALRDPIKLNCDHHYCRQCFENENRTPGCAACQTIIQPELCQHDRAKQKQILALPVVCTFESSGCPWDGQLGTLHDHLSECTFKSSLKCEKCGRQFAKNDLEKHRAKCELNRAVCSFCNKTIRDSDRERHPKTCPQVIISCPFQCGLTDRPRLEIEAHCPSCPNVDNVCPFVPYGCTFAGGKESIQQHLSDEPVRHLMYLCDEITDLKGTYELMERDMGSFNDRQTRILSAAETCTEMFGPQLIWKIDKLQQRTNEAKSGADTTIFSVPFMSHRFGYKMMACACLFGDGSSAGKSISLYVLLLKGEFDPTLEWPFHRAIKISLLDQNPRPEDRVNITYVIDPRKLKANEKFLARPRGERNAAFGSQSFCSLAILQNYVKDDKIYVQIDVDRCETLPVQLKSRDAKERKQMLDAMRAKTPDVRLHQVRPVTSQSSSAELRV | not soluble
12 | MGSDKIHHHHHHMINQVYRLVSERQFEVANVDESLTGDVVVVRPTHLSICAADQRYYTGSRGKEMLSKKLPMALIHEGVGEVVYDATKEFKPGAKVVMIPNTPFENDPVIAENYLRSSKFRSSGYDGLMQDYVFMRRDRVVALPDDINMKVAAFSELISVAVHAILRFEGKSNANRESFGVWGDGNLGFITSLLLKNWYPDSKVYIFGKTPYKLDFFSFVDGAYAIDDVPADLVIDQAFECAGGMGSQYAVSQIIDVIKPEGTISLLGVSEYPIEFNSRMVLEKGLTVYGSSRSGRVDFEKTVEFLSTNKRGVEYLQNLVGEVHTVHSIQDVIEAFEADLRSPWGKSVMEWKI | not soluble
13 | MAHHHHHHMDAAIAQLRGCLEELLTYYPHVLRNVFEVEPSPLAAPKLSQQRPRDSSALADVIEDFLTELTRVLSIGLCDDDLGLWSVLELLECVPARMQAVAEATATAPETAALSKHGAQEPLQQLQRFRFASQLVYLVRSAFPATAPAVRARIFLRLTLNQGCLVAALELLREWCRSELLVFYAASDRGRRNGAAGSASSVALLVQSDTDSDMWNSFVAAIAPVAGPPVAEIAAGAPKVAAQPFHLQLLVPGLDDNSAASHAYYTQVENYACGRQPTRPSALACYRAALRQHSGSARKHDRSFRAASAGEGAASSPKLSPHPAEQLVLRVESLSVDHRTASGKEVAPVSRGNVSYDSSSTLSSRPMTLEPLSFVHRERLRGAKKRRRRHPSLSTAGAVAREEDAAGSPTPEGKTDNTTSDNTGSVAEAALHTSTVVTEAKECQGAPEAGEKAAPPYRDDYASRDDDPQVAPTVGETGAAQAASRALDTVSTDSPASAPHCLSPALRAAESPNRTLDSSSAPALSPELRNLQHRLWLCWLAVVTHAESEERIRITVRDVDANIS | not soluble
14 | MRGHLIDGDGRCIHYHGPFDVVGNKCATCNEWWACHRCHEEIANHPFGKMLIDAPSSLQCGHCGELMAYGVQKCPRCGHNFNPGCSLHTPLYYEMPSLEHHHHHH | not soluble
15 | VNQQLNSATKLFSVKLGATRVIYHAGTAGATLSVSNPQNYPILVQSSVKAADKSSPAPFLVMPPLFRLEANQQSQLRIVRTGGDMPTDRETLQWVCIKAVPPENEPSDTQAKGATLDLNLSINACDKLIFRPDAVKGTPEDVAGNLRWVETGNKLKVENPTPFYMNLASVTVGGKPITGLEYVPPFADKTLNMPGSAHGDIEWRVITDFGGESHPFHYVLK | soluble
16 | MAHHHHHHMAANGCFIAALIARTHDRLPLCSYTDDNYSNANVIRQQEQRIVERMESPAGGTDRAAAKGSYYESFDHKDNVYFAFQDAATDLTLVVAVNKLLLRNSGDINGMNKLACGLLDLIFSEFIQMYTPAEIGAPNVRAYQFIKFDATLRKCVTRIMQQDRTTGDRIV | not soluble
17 | TDESRGKARAAGVESAVLLENKSRLLPLAKEAKIALVGPLATSPDILGGWNVYGEEKDGINVETGLREVFETVEVVSTEYTELSEEDKVAVKAAVQNMDVVVLALGEKNEWGGEAGSLATIRLPEAQYQLAKFVQTLGKPVVITLFNGRPLEVKELAESSDALLELWFPGTEAGRVTADLLSGASNPSGKLSMSFPQTTGQIPVYYNHLRTGRPQTPENKGERYVSHYLDIPNEPFYPFGYGKSYSEF | not soluble
18 | MGSDKIHHHHHHMAHENVIEMRDITKVFGGFVANDKINLHLRKGEIHALLGENGAGKSTLMNMLAGLLEPTSGEIAVNGQVVNLDSPSKAASLGIGMVHQHFMLVEAFTVAENIILGSELTKNGVLDIAGASKEIKALSERYGLAVDPSAKVADISVGAQQRVEILKTLYRGADILIFDEPTAVLTPSEIDELMAIMKNLVKEGKSIILITHKLDEIRAVSDRVTVIRRGKSIETVEIAGATNADLAEMMVGRSVSFKTEKQASKPKEVVLSIKDLVVNENRGVPAVKNLSLDVRAGEIVGIAGIDGNGQSELIQAITGLRKVESGSIELKGDSIVGLHPRQITELSVGHVPEDRHRDGLILEMMISENIALQTYYKEPHSKNGILNYSNITSYAKKLMEEFDVRAASELVPAAALSGGNQQKAIIAREIDRDPDLLIVSQPTRGLDVGAIEYIHKRLIEERDNGKAVLVVSFELDEILNVSDRIAVIHDGKIQGIVSPETTNKQELGVLMAGGNLGKEKSDV | not soluble
19 | MSLSDYAPGMTGGPTGFEGAERFQYNNTMSEGRAIEGIKALQAAGNAPAKISMLLTDGAIGQITKPFPEGGPSAKEVWERETGIEIDIVGAPAEDIFKKVMQDVTTGGGTFDIYTGPWNSTGDLVSSGGAVNCSDFVAKYQPDWADPERGTPTPEMEKLLYTYAGDYYSFSLDGDFQTWFYLKGLYEDPRVQDAFLSETGVALKTPDTWEEVDRISKFFTGKDFGNGPMYGNGNLMSPFWGLATFYARFASMDFPNYHFFDEDGNPNLNSDLGIQCAEEHVRSFEWCPPDALTFTWAEAYATMWNLQIPHTAIYTNLVKFGDGYNADGTPKSKATGMIGSHLPVGRRFGDQLNRRSVLYYHITAWISSQSQHPEAVYLFLQWLSSTRTYTWMAGNPGGYFDPMQQANFKEPLVASTYHPYAMETIPQTIARSVPSINFAGQTALDNALDEEIQAAITGQKSAREAMDAAQSKWERIIKRQKRNGIVDAIKASRATWPTIVDEGHHHHHH | soluble
20 | MAHHHHHHMSLMDCKYHKHHLYADKFWWSPSPETNHMRGDAEFKWKGNELIAYGDYNAHMQHPANFVTSSSSGSSGSGAATSKSAAAAAGSKKGASARPWFRRTVVVRKSQASDTKPLSTASKIAAAGTSK | not soluble
